B2: murine GDF15 (mGDF15), mature, generated in-house in CHO cells (ligand)
chain: AHPRDSCPLGPGRCCHLETVQATLEDLGWSDWVLSPRQLQLSMCVGECPHLYRSANTHAQIKARLHGLQPDKVPAPCCVPSSYTPVVLMHRTDSGVSLQTYDDLVARGCHCA
B8: hTβRII-hG1Fc fusion protein (R&D Systems) incorporating the wild-type TβRIIshort isoform (Fc fusion)
chain: IPPHVQKSVNNDMIVTDNNGAVKFPQLCKFCDVRFSTCDNQKSCMSNCSITSICEKPQEVCVAVWRKNDENITLETVCHDPKLPYHDFILEDAASPKCIMKEKKKPGETFFMCSCSSDECNDNIIFSEEYNTSNPD
notes: Bought from R&D Systems; also called hTβRII-Fc; TGFβ receptor type II (TβRII)-Fc; not shown: human IgG1 Fc domain

Assay [1] addresses B2. Kind of assay: surface plasmon resonance with captured receptor-Fc fusion proteins. From the text: (§1) These fusion proteins incorporated an IgG1 Fc domain and were either purchased from R&D Systems or generated in-house.
On the technique in general: SPR reads the build-up and loss of mass on a sensor chip optically.

For assay [2], the target named is B8. Kind of assay: surface plasmon resonance at 37° C., mGDF15.
Assay [3] has as its target T1, ALK3 receptor-Fc fusion protein (human, UniProt P36894 24-152).
T1 construct: Bought from R&D Systems or made in-house; not shown: IgG1 Fc domain
Kind of assay: surface plasmon resonance with captured receptor-Fc fusion proteins.
From the text: as §1

Assay [4] has as its target T2, ALK6 receptor-Fc fusion protein (human, UniProt O00238 14-126).
T2 construct: Bought from R&D Systems or made in-house; not shown: IgG1 Fc domain
T2 sequence (looked up): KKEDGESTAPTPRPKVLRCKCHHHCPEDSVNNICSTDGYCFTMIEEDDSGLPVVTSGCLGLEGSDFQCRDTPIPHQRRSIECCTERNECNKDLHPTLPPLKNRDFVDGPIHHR
The description is as above.
From the text: as §1

For assay [5], the target named is B8. Nature of the assay: surface plasmon resonance at 37° C., hTβRII-Fc captured, hGDF15 as analyte; 37° C.; hTβRII-Fc captured, hGDF15 as analyte.
From the text: as §1

Assay [6] has as its target B2. Kind of assay: surface plasmon resonance at 37° C., mGDF15.
The target of assay [7] is T3, GDF15 (human or murine, not specified where printed).
T3 construct: Used here only where the species cannot be told
Nature of the assay: surface plasmon resonance, receptor-Fc captured, GDF15 as analyte.
From the text: as §1

T1 sequence (P36894 24-152 limits assumed): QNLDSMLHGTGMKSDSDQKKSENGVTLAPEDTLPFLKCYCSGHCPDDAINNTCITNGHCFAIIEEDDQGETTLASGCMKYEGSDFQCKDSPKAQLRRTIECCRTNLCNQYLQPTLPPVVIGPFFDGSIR

B1: ALK4 receptor-Fc fusion protein (Fc fusion, human, UniProt P36896 24-126, looked up)
chain: SGPRGVQALLCACTSCLQANYTCETDGACMVSIFNLDGMEHHVRTCIPKVELVPAGKPFYCLSSEDLRNTHCCYTDYCNRIDLRVPSGHLKEPEHPSMWGPVE
notes: Bought from R&D Systems or made in-house; not shown: IgG1 Fc domain
As for B1, the binding result in assay [1] is “no binding (tested: 20 nM or 200 nM)”.
On to B2, for which, in assay [2], the Kd stood at 4.8 nM. The binding result in assay [3] and in assay [4] was “no binding (tested: 20 nM or 200 nM)” each time.

B3: ALK5 receptor-Fc fusion protein (Fc fusion, human, UniProt P36897 34-126, looked up)
chain: LQCFCHLCTKDNFTCVTDGLCFVSVTETTDKVIHNSMCIAEIDLIPRDRPFVCAPSSKTGSVTTTYCCNQDHCNKIELPTTVKSSPGLGPVEL
notes: Bought from R&D Systems or made in-house; also called TGFβ receptor type I; not shown: IgG1 Fc domain
Consider B3, for which the binding result in assay [1] was “no binding (tested: 20 nM or 200 nM)”.

B4: ALK7 receptor-Fc fusion protein (Fc fusion, human, UniProt Q8NER5 21-113, looked up)
chain: ELSPGLKCVCLLCDSSNFTCQTEGACWASVMLTNGKEQVIKSCVSLPELNAQVFCHSSNNVTKTECCFTDFCNNITLHLPTASPNAPKLGPME
notes: as for B1
Consider B4, for which, in assay [1], the binding result is “no binding (tested: 20 nM or 200 nM)”.

B5: ALK2 receptor-Fc fusion protein (Fc fusion, human, UniProt Q04771 21-123, looked up)
chain: MEDEKPKVNPKLYMCVCEGLSCGNEDHCEGQQCFSSLSINDGFHVYQKGCFQVYEQGKMTCKTPPSPGQAVECCQGDWCNRNITAQLPTKGKSFPGTQNFHLE
notes: as for B1
As to B5, the binding result in assay [1] was “no binding (tested: 20 nM or 200 nM)”.

B6: human GDF15 (hGDF15), mature, generated in-house in CHO cells (ligand)
chain: ARNGDHCPLGPGRCCRLHTVRASLEDLGWADWVLSPREVQVTMCIGACPSQFRAANMHAQIKTSLHRLKPDTVPAPCCVPASYNPMVLIQKTDTGVSLQTYDDLLAKDCHCI
notes: also called MIC-1
The molecule B6 returned a Kd in assay [5] of 9.56 nM.

B7: fusion protein incorporating the wild-type TβRIIlong isoform (R&D Systems) (Fc fusion)
chain: TIPPHVQKSDVEMEAQKDEIICPSCNRTAHPLRHINNDMIVTDNNGAVKFPQLCKFCDVRFSTCDNQKSCMSNCSITSICEKPQEVCVAVWRKNDENITLETVCHDPKLPYHDFILEDAASPKCIMKEKKKPGETFFMCSCSSDECNDNIIFSEEYNTSNPD
notes: Bought from R&D Systems; also called TβRIIlong-Fc; not shown: Fc fusion partner of the purchased construct is not described for this follow-up analysis
Molecule B7 returned an equilibrium dissociation constant (Kd) in assay [6] of 2.7 nM.
Regarding B8, in assay [7], the off-rate (koff) amounted to 0.001 s⁻¹ and the kon was found to be 292000 M⁻¹ s⁻¹.

In general, Kd refers to a measure of binding affinity in units of concentration. Low values mean tighter binding, high ones weaker binding. For orientation: koff means the first-order rate constant of dissociation. Read a low koff as a long-lived complex. In general, kon refers to the second-order rate constant of association.

The values are drawn from patent US20150056199A1 (ACCELERON PHARMA, published 2015).
